Test results taken from patent US20240247055A1.

Biological target: low-density lipoprotein (LDL) receptor-related protein 1 (LRP1) (human) (UniProt Q07954)
Assay: cell-based or functional assay

Sequence of UniProt Q07954 (Q07954 20-4544): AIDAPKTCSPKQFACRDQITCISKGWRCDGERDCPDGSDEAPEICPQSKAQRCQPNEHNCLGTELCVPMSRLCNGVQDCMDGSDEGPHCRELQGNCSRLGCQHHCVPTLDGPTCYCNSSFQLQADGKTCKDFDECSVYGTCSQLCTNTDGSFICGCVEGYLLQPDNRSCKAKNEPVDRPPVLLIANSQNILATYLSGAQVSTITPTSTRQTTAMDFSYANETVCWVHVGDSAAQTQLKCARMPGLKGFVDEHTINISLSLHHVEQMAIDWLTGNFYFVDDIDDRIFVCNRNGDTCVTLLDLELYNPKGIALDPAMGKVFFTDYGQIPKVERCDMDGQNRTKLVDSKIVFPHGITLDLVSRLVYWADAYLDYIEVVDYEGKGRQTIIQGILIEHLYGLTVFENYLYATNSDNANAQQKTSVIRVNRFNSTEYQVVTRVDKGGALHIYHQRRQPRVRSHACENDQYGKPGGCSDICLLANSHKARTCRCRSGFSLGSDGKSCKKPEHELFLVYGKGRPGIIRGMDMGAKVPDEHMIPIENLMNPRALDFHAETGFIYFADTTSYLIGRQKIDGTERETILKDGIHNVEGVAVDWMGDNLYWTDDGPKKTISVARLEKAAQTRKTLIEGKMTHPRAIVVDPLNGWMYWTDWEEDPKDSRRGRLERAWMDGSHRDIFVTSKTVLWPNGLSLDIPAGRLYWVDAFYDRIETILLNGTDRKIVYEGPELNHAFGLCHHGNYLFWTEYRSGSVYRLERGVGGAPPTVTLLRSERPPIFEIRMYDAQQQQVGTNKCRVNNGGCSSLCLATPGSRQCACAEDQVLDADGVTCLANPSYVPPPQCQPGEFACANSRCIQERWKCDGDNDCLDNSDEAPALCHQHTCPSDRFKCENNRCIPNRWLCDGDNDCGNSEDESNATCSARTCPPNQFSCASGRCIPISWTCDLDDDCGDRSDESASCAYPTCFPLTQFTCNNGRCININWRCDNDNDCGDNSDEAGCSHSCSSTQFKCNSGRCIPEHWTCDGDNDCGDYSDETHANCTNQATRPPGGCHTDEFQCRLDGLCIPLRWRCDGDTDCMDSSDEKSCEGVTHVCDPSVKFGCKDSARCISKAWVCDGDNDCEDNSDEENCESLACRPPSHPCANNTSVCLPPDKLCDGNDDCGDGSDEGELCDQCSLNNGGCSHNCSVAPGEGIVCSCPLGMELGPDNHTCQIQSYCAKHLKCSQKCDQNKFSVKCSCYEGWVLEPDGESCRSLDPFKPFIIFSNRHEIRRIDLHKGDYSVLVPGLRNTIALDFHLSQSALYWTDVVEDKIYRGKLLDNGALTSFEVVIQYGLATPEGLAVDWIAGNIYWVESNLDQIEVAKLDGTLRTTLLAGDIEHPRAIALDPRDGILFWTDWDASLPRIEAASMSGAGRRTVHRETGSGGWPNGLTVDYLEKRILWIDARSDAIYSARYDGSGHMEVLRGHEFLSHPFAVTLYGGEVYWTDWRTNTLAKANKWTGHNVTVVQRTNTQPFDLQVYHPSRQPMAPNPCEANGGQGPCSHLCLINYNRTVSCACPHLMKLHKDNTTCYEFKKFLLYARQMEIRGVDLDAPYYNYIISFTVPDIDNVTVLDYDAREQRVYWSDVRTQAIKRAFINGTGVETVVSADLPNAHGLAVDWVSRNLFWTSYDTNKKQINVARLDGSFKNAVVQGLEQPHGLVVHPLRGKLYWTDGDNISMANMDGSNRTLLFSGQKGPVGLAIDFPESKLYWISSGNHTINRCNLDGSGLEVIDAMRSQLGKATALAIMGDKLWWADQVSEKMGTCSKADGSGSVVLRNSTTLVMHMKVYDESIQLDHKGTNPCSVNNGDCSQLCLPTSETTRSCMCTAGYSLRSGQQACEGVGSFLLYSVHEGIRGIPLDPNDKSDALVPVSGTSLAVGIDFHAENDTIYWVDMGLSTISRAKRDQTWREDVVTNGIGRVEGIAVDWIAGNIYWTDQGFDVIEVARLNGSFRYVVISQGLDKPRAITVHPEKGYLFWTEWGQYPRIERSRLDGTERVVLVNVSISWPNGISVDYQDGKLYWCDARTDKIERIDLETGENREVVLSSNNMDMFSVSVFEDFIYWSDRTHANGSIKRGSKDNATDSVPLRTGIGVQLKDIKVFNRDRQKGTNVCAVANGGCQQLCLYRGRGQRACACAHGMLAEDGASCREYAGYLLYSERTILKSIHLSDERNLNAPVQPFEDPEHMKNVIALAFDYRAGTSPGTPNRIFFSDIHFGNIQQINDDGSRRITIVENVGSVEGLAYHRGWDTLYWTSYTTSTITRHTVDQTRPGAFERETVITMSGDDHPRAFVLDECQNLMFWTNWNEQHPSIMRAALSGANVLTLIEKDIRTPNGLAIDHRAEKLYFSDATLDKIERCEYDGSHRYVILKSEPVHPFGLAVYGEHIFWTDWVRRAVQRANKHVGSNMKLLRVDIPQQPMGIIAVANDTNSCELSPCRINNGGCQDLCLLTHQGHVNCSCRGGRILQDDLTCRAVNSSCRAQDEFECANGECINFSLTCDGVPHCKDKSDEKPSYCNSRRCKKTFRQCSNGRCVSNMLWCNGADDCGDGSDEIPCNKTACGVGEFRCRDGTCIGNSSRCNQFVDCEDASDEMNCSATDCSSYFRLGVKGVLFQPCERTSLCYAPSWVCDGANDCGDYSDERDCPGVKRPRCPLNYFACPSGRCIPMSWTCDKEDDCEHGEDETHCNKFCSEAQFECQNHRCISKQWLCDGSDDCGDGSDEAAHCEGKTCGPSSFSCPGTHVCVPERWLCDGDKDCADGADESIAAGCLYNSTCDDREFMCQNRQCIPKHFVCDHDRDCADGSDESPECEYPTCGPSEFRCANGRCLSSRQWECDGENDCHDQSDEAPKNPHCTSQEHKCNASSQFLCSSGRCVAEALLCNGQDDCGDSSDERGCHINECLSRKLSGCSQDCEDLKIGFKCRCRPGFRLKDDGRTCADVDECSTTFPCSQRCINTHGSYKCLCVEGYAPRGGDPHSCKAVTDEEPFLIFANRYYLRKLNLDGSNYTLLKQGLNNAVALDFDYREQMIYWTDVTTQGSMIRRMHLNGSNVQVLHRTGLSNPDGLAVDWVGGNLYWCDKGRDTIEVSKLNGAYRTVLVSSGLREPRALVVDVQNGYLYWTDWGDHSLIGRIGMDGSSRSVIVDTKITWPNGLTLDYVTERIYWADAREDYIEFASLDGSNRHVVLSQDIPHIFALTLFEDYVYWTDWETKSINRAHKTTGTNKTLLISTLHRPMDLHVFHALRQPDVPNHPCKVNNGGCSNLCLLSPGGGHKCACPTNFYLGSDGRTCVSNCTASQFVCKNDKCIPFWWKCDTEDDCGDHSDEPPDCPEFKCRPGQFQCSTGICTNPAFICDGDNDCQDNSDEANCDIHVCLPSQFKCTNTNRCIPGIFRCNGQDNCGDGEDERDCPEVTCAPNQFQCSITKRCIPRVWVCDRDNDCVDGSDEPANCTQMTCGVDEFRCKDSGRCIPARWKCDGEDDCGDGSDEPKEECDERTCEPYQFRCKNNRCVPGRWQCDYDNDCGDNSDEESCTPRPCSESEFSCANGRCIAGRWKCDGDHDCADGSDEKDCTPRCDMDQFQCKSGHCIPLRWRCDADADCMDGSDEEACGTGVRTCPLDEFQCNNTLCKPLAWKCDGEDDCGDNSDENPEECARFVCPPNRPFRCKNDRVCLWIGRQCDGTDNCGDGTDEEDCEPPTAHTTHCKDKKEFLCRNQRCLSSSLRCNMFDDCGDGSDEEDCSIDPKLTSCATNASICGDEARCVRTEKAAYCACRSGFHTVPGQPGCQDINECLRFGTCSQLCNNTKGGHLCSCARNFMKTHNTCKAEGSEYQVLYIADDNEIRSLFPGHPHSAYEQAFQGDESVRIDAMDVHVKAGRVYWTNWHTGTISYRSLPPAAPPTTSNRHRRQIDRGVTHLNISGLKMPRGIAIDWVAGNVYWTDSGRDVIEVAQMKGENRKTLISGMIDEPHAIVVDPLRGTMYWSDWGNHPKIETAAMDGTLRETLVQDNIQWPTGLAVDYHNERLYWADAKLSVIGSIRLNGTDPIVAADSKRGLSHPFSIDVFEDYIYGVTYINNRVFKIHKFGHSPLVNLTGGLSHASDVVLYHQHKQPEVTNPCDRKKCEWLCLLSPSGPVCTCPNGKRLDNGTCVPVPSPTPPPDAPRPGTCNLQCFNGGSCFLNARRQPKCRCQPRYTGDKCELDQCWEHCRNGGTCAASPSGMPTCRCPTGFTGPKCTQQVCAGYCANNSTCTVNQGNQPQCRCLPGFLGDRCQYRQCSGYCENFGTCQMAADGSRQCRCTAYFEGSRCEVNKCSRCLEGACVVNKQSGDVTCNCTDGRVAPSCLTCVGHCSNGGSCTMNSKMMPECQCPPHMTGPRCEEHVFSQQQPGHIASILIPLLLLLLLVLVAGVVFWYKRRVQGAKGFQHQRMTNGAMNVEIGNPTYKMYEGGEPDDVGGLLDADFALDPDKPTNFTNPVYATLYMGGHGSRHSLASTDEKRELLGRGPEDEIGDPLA

inhibition of uptake of K18 tau in WT H4 cells (IC50): 9.6 nM | inhibition of uptake of full-length tau in WT H4 cells (IC50): 4.9 nM
Substance: receptor-associated protein (RAP) (from UniProt P30533 35-357) (ligand)
